Measured values reported in US20070184493.

What was measured:
[1] = tested on: substrate designed for detection of Granzyme B (-VGPD′FGR- cleavage)
[2] = tested on: substrate designed for detection of Caspase 3 (-DEVD′GIN- cleavage)

With recombinant Granzyme B as the substance, how does the “Fluorogenic activity of indicated substrates measured in solution after addition of recombinant enzyme” value [1] read?
Its value is “selective cleavage of substrates designed for detection of Granzyme B (-VGPD′FGR- cleavage)”.

recombinant Caspase 3 was tested. Which “Fluorogenic activity of indicated substrates measured in solution after addition of recombinant enzyme” value [2] did it give?
Its value is “selective cleavage of substrates designed for detection of ... Caspase 3 (-DEVD′GIN- cleavage) protease activities”.
